Test results: publication PMC6981688

What was measured:
[1] = WB of histone marks in 293T; conditions: glycan lost; control: NSL3-3wt overexpression
[2] = Flag IP, WB, increasing OGA; conditions: glycan lost; control: full-length NSL3wt
[3] = Flag IP, anti-HA-ubiquitin WB, increasing OGT1, UBE2S, MG132; conditions: glycan lost; control: full-length NSL3wt
[4] = Flag-OGT1 IP, WB for NSL3, MOF, MCRS1, PHF20, NSL1, NSL2; conditions: glycan lost; control: NSL3-3wt overexpression
[5] = Flag IP, anti-HA-ubiquitin WB, increasing OGT1, NSL3-3 truncation; conditions: glycan lost; control: NSL3-3wt
A549 colony formation = conditions: glycan lost; control: NSL3-3wt overexpression
[6] = NSL3 ubiquitination: Flag IP, anti-HA-ubiquitin WB, MG132; conditions: glycan gained; control: NSL3 alone / untreated

NSL3 (nonspecific lethal protein 3): Flag-NSL3-3 T755A
other: reduction of global H4 acetylation/H3K4me2 by NSL3-3 overexpression [1]: abolishes

NSL3 (nonspecific lethal protein 3): NSL3 T755A
other: OGA-induced increase of NSL3 ubiquitination and UBE2S binding [2]: decreases | other: OGT1-dependent decrease of NSL3 ubiquitination [3]: abolishes

NSL3 (nonspecific lethal protein 3): NSL3-3 T755A
other: loss of NSL complex subunits from Flag-OGT1 IP caused by NSL3-3 [4]: abolishes | degradation_or_half_life [5]: changes

NSL3 (nonspecific lethal protein 3): NSL3-3mt (T755A)
other: colony suppression by NSL3-3 overexpression (A549 colony formation): abolishes

NSL3 (nonspecific lethal protein 3): OGT1 co-transfection
degradation_or_half_life [6]: increases

NSL3 (nonspecific lethal protein 3): thiamet-G (TMG)
degradation_or_half_life [6]: decreases
